Assay results from patent publication US20230406951A1 (Pfizer, published 2023).

B1: TetraFab 2057 (antibody)
heavy: QVQLVQSGAEVKKPGASVKVSCKVSGFSFPSSGVDWVRQAPGQGLEWLGVTLGHGSTHYNQKFQGRVTITKDTSKSTVYMELSSLRSEDTAVYYCASGEWDEGFVYWGQGTLVTVSSASTKGPSVFPLAPSSKSTSGGTAALGCLVKDYFPEPVTVSWNSGALTSGVHTFPAVLQSSGLYSLSSVVTVPSSSLGTQTYICNVNHKPSNTKVDKKVEPKSCGGGGSQVQLVQSGAEVKKPGASVKVSCKVSGFSFPSSGVDWVRQAPGQGLEWLGVTLGHGSTHYNQKFQGRVTITKDTSKSTVYMELSSLRSEDTAVYYCASGEWDEGFVYWGQGTLVTVSSASTKGPSVFPLAPSSKSTSGGTAALGCLVKDYFPEPVTVSWNSGALTSGVHTFPAVLQSSGLYSLSSVVTVPSSSLGTQTYICNVNHKPSNTKVDKKVEPKSCDKTHTCPPCPAPEAAGAPSVFLFPPKPKDTLMISRTPEVTCVVVDVSHEDPEVKFNWYVDGVEVHNAKTKPREEQYNSTYRVVSVLTVLHQDWLNGKEYKCKVSNKALPAPIEKTISKAKGQPREPQVYTLPPSREEMTKNQVSLTCLVKGFYPSDIAVEWESNGQPENNYKTTPPVLDSDGSFFLYSKLTVDKSRWQQGNVFSCSVMHEALHNHYTQKSLSLSPGK
light: DIQLTQSPSFLSASVGDRVTITCKASQNVGTAVAWYQQKPGKAPKLLIYAASTLQSGVPSRFSGSGSGTEFTLTISSLQPEDFATYYCQQYSSYPLTFGGGTKVEIKRTVAAPSVFIFPPSDEQLKSGTASVVCLLNNFYPREAKVQWKVDNALQSGNSQESVTEQDSKDSTYSLSSTLTLSKADYEKHKVYACEVTHQGLSSPVTKSFNRGEC
notes: TetraFab
B2: TetraFab 2058 (antibody)
heavy: QVQLVQSGAEVKKPGASVKVSCKVSGFSFPSSGVDWVRQAPGQGLEWLGVTHGSGSTHYNQKFQGRVTITKDTSKSTVYMELSSLRSEDTAVYYCASGEWDEGFVYWGQGTLVTVSSASTKGPSVFPLAPSSKSTSGGTAALGCLVKDYFPEPVTVSWNSGALTSGVHTFPAVLQSSGLYSLSSVVTVPSSSLGTQTYICNVNHKPSNTKVDKKVEPKSCGGGGSQVQLVQSGAEVKKPGASVKVSCKVSGFSFPSSGVDWVRQAPGQGLEWLGVTHGSGSTHYNQKFQGRVTITKDTSKSTVYMELSSLRSEDTAVYYCASGEWDEGFVYWGQGTLVTVSSASTKGPSVFPLAPSSKSTSGGTAALGCLVKDYFPEPVTVSWNSGALTSGVHTFPAVLQSSGLYSLSSVVTVPSSSLGTQTYICNVNHKPSNTKVDKKVEPKSCDKTHTCPPCPAPEAAGAPSVFLFPPKPKDTLMISRTPEVTCVVVDVSHEDPEVKFNWYVDGVEVHNAKTKPREEQYNSTYRVVSVLTVLHQDWLNGKEYKCKVSNKALPAPIEKTISKAKGQPREPQVYTLPPSREEMTKNQVSLTCLVKGFYPSDIAVEWESNGQPENNYKTTPPVLDSDGSFFLYSKLTVDKSRWQQGNVFSCSVMHEALHNHYTQKSLSLSPGK
light: DIQLTQSPSFLSASVGDRVTITCKASQNVGTAVAWYQQKPGKAPKLLIYAASTLQSGVPSRFSGSGSGTEFTLTISSLQPEDFATYYCQQYSSYPLTFGGGTKVEIKRTVAAPSVFIFPPSDEQLKSGTASVVCLLNNFYPREAKVQWKVDNALQSGNSQESVTEQDSKDSTYSLSSTLTLSKADYEKHKVYACEVTHQGLSSPVTKSFNRGEC
notes: TetraFab
B3: TetraFab 2060 (antibody)
heavy: QVQLVQSGAEVKKPGASVKVSCKVSGFSFPSSGVDWVRQAPGQGLEWLGVTWGVGSTHYNQKFQGRVTITKDTSKSTVYMELSSLRSEDTAVYYCASGEHDEGFVYWGQGTLVTVSSASTKGPSVFPLAPSSKSTSGGTAALGCLVKDYFPEPVTVSWNSGALTSGVHTFPAVLQSSGLYSLSSVVTVPSSSLGTQTYICNVNHKPSNTKVDKKVEPKSCGGGGSQVQLVQSGAEVKKPGASVKVSCKVSGFSFPSSGVDWVRQAPGQGLEWLGVTWGVGSTHYNQKFQGRVTITKDTSKSTVYMELSSLRSEDTAVYYCASGEHDEGFVYWGQGTLVTVSSASTKGPSVFPLAPSSKSTSGGTAALGCLVKDYFPEPVTVSWNSGALTSGVHTFPAVLQSSGLYSLSSVVTVPSSSLGTQTYICNVNHKPSNTKVDKKVEPKSCDKTHTCPPCPAPEAAGAPSVFLFPPKPKDTLMISRTPEVTCVVVDVSHEDPEVKFNWYVDGVEVHNAKTKPREEQYNSTYRVVSVLTVLHQDWLNGKEYKCKVSNKALPAPIEKTISKAKGQPREPQVYTLPPSREEMTKNQVSLTCLVKGFYPSDIAVEWESNGQPENNYKTTPPVLDSDGSFFLYSKLTVDKSRWQQGNVFSCSVMHEALHNHYTQKSLSLSPGK
light: DIQLTQSPSFLSASVGDRVTITCKASQNVGTAVAWYQQKPGKAPKLLIYAASTLQSGVPSRFSGSGSGTEFTLTISSLQPEDFATYYCQQYSSYPLTFGGGTKVEIKRTVAAPSVFIFPPSDEQLKSGTASVVCLLNNFYPREAKVQWKVDNALQSGNSQESVTEQDSKDSTYSLSSTLTLSKADYEKHKVYACEVTHQGLSSPVTKSFNRGEC
notes: TetraFab
B4: TetraFab 2063 (antibody)
heavy: QVQLVQSGAEVKKPGASVKVSCKVSGFSFPSSGVDWVRQAPGQGLEWLGVTKGQGSTHYNQKFQGRVTITKDTSKSTVYMELSSLRSEDTAVYYCASGESTEGFVYWGQGTLVTVSSASTKGPSVFPLAPSSKSTSGGTAALGCLVKDYFPEPVTVSWNSGALTSGVHTFPAVLQSSGLYSLSSVVTVPSSSLGTQTYICNVNHKPSNTKVDKKVEPKSCGGGGSQVQLVQSGAEVKKPGASVKVSCKVSGFSFPSSGVDWVRQAPGQGLEWLGVTKGQGSTHYNQKFQGRVTITKDTSKSTVYMELSSLRSEDTAVYYCASGESTEGFVYWGQGTLVTVSSASTKGPSVFPLAPSSKSTSGGTAALGCLVKDYFPEPVTVSWNSGALTSGVHTFPAVLQSSGLYSLSSVVTVPSSSLGTQTYICNVNHKPSNTKVDKKVEPKSCDKTHTCPPCPAPEAAGAPSVFLFPPKPKDTLMISRTPEVTCVVVDVSHEDPEVKFNWYVDGVEVHNAKTKPREEQYNSTYRVVSVLTVLHQDWLNGKEYKCKVSNKALPAPIEKTISKAKGQPREPQVYTLPPSREEMTKNQVSLTCLVKGFYPSDIAVEWESNGQPENNYKTTPPVLDSDGSFFLYSKLTVDKSRWQQGNVFSCSVMHEALHNHYTQKSLSLSPGK
light: DIQLTQSPSFLSASVGDRVTITCKASQNVGTAVAWYQQKPGKAPKLLIYAASTLQSGVPSRFSGSGSGTEFTLTISSLQPEDFATYYCQQYSSYPLTFGGGTKVEIKRTVAAPSVFIFPPSDEQLKSGTASVVCLLNNFYPREAKVQWKVDNALQSGNSQESVTEQDSKDSTYSLSSTLTLSKADYEKHKVYACEVTHQGLSSPVTKSFNRGEC
notes: TetraFab
B5: TetraFab 2059 (antibody)
heavy: QVQLVQSGAEVKKPGASVKVSCKVSGFSFPSSGVDWVRQAPGQGLEWLGVTWGVGSTHYNQKFQGRVTITKDTSKSTVYMELSSLRSEDTAVYYCASGESTEGFVYWGQGTLVTVSSASTKGPSVFPLAPSSKSTSGGTAALGCLVKDYFPEPVTVSWNSGALTSGVHTFPAVLQSSGLYSLSSVVTVPSSSLGTQTYICNVNHKPSNTKVDKKVEPKSCGGGGSQVQLVQSGAEVKKPGASVKVSCKVSGFSFPSSGVDWVRQAPGQGLEWLGVTWGVGSTHYNQKFQGRVTITKDTSKSTVYMELSSLRSEDTAVYYCASGESTEGFVYWGQGTLVTVSSASTKGPSVFPLAPSSKSTSGGTAALGCLVKDYFPEPVTVSWNSGALTSGVHTFPAVLQSSGLYSLSSVVTVPSSSLGTQTYICNVNHKPSNTKVDKKVEPKSCDKTHTCPPCPAPEAAGAPSVFLFPPKPKDTLMISRTPEVTCVVVDVSHEDPEVKFNWYVDGVEVHNAKTKPREEQYNSTYRVVSVLTVLHQDWLNGKEYKCKVSNKALPAPIEKTISKAKGQPREPQVYTLPPSREEMTKNQVSLTCLVKGFYPSDIAVEWESNGQPENNYKTTPPVLDSDGSFFLYSKLTVDKSRWQQGNVFSCSVMHEALHNHYTQKSLSLSPGK
light: DIQLTQSPSFLSASVGDRVTITCKASQNVGTAVAWYQQKPGKAPKLLIYAASTLQSGVPSRFSGSGSGTEFTLTISSLQPEDFATYYCQQYSSYPLTFGGGTKVEIKRTVAAPSVFIFPPSDEQLKSGTASVVCLLNNFYPREAKVQWKVDNALQSGNSQESVTEQDSKDSTYSLSSTLTLSKADYEKHKVYACEVTHQGLSSPVTKSFNRGEC
notes: TetraFab

biological target: T1, human TNFR2 (human, UniProt P20333 23-461); experiment: binding to human TNFR2 CHO cells
T1 construct: expressed on the surface of CHO cells; also called HuTNFR2; TNFRSF1B
T1 sequence: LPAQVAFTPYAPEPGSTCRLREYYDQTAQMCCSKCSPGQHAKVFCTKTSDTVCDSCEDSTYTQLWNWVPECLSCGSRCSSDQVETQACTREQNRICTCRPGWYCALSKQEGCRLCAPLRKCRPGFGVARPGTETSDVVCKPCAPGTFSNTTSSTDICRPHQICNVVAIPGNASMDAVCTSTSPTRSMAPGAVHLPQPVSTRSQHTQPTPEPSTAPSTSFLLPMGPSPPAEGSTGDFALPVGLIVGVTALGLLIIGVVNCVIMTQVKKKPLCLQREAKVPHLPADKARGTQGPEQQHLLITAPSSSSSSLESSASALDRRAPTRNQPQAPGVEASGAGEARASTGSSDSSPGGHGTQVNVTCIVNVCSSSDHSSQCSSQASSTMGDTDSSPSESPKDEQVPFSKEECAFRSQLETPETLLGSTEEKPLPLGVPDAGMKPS

Does B1 bind?
Result: no binding

Does B2 bind?
Result: no binding

Does B3 bind?
Result: no binding

Does B4 bind?
Result: no binding

Does B5 bind?
Result: no binding
